In US20230277689:
Numbering of substitutions follows the chain as printed.

B1: plasma purified human CFI (Comptech) (protein)
chain: KVTYTSQEDLVEKKCLAKKYTHLSCDKVFCQPWQRCIEGTCVCKLPYQCPKNGTAVCATNRRSFPTYCQQKSLECLHPGTKFLNNGTCTAEGKFSVSLKHGNTDSEGIVEVKLVDQDKTMFICKSSWSMREANVACLDLGFQQGADTQRRFKLSDLSINSTECLHVHCRGLETSLAECTFTKRRTMGYQDFADVVCYTQKADSPMDDFFQCVNGKYISQMKACDGINDCGDQSDELCCKACQGKGFHCKSGVCIPSQYQCNGEVDCITGEDEVGCAGFASVTQEETEILTADMDAERRRIKSLLPKLSCGVKNRMHIRRKRIVGGKRAQLGDLPWQVAIKDASGITCGGIYIGGCWILTAAHCLRASKTHRYQIWTTVVDWIHPDLKRIVIEYVDRIIFHENYNAGTYQNDIALIEMKKDGNKKDCELPRSIPACVPWSPYLFQPNDTCIVSGWGREKDNERVFSLQWGEVKLISNCSKFYGNRFYEKEMECAGTYDGSIDACKGDSGGPLVCMDANNVTYVWGVVSWGENCGKPEFPGVYTKVANYFDWISYHVGRPFISQYNV
B2: human Complement Factor I expressed from pAAV.CFI / AAV.CFI (cDNA of SEQ ID NO: 2, Genbank NM_000204.4) (protein)
chain: B1 chain with T282A
B3: human Complement Factor I expressed from pAAV.CFIco / AAV.CFIco (codon-optimised cDNA of SEQ ID NO: 8) (protein)
chain: B1 chain

target: plasma purified C3b (Comptech), P01024
Sequence (P01024 whole entry, looked up): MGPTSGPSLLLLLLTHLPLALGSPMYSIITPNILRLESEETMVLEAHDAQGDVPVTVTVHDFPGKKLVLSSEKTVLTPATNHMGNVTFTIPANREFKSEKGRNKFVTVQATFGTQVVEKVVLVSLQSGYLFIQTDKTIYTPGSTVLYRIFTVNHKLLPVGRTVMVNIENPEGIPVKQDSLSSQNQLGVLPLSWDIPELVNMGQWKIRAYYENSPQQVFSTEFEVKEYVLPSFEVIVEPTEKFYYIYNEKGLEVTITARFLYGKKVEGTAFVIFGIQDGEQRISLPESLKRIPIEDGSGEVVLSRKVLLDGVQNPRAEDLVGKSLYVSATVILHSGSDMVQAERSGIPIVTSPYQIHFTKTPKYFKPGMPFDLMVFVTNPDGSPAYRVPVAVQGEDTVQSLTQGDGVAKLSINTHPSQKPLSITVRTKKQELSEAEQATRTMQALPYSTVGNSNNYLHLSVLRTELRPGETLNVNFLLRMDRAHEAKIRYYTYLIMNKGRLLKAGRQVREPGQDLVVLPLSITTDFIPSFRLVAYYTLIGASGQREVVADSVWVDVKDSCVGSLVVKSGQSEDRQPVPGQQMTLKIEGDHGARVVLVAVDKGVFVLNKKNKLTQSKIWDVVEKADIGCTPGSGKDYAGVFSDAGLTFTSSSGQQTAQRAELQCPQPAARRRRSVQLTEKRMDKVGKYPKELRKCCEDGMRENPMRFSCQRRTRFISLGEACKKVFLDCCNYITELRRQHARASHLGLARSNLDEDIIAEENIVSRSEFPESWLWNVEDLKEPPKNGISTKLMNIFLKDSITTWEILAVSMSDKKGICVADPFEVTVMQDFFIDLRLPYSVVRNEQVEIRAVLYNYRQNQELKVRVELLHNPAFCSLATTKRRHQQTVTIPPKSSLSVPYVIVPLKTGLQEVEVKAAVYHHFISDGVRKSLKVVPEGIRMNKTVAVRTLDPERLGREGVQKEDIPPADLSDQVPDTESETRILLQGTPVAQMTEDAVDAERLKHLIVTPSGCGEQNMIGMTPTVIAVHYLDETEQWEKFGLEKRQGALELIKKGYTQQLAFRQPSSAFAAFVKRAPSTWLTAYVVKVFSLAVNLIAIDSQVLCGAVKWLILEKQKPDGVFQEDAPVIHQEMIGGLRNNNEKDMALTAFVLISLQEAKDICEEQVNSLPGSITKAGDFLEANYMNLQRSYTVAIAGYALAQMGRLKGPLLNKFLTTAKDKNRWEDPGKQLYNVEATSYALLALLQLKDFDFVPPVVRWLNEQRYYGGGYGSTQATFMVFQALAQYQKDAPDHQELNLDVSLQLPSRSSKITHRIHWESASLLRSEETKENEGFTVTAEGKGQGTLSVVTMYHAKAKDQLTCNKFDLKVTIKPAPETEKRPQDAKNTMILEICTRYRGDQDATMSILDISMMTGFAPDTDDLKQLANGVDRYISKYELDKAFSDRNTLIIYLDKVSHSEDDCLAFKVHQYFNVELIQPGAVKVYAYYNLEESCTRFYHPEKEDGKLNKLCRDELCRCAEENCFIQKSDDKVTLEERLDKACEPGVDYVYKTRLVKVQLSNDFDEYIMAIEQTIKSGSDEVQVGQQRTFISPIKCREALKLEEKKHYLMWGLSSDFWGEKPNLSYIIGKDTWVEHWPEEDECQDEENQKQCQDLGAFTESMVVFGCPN

| Protein | C3b cleavage assay (with CFH as co-factor; immunoblot with clone 9) |
| --- | --- |
| B1 | C3b is degraded by CFIpl to iC3b and C3dg |
| B2 | CFI secreted from transduced cell lines is functionally active and cleaves the α-chain of C3b to iC3b |
| B3 | CFI secreted from transduced cell lines is functionally active and cleaves the α-chain of C3b to iC3b |
